Assay results: patent publication US11814440B2, “Glypican 2 as a cancer marker and therapeutic target” (THE CHILDREN'S HOSPITAL OF PHILADELPHIA, priority 2015, dated 2023)

T1: GPC2 (Homo sapiens, UniProt Q8N158)
T1 sequence (Q8N158 24-554): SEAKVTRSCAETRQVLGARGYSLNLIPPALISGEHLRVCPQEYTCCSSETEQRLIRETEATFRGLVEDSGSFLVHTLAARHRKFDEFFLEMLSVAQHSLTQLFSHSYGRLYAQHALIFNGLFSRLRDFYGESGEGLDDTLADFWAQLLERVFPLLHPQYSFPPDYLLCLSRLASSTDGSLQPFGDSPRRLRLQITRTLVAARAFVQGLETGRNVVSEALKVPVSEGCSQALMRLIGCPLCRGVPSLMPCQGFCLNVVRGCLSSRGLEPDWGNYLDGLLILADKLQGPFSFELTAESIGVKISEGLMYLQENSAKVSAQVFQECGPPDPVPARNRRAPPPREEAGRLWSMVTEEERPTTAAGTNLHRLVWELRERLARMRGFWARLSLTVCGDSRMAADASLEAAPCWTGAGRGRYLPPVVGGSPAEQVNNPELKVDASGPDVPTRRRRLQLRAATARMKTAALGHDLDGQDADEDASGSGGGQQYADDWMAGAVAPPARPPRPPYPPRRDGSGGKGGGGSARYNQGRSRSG

T2: cancer cell-associated GPC2 (Homo sapiens, UniProt Q8N158)
T2 sequence (Q8N158 24-554): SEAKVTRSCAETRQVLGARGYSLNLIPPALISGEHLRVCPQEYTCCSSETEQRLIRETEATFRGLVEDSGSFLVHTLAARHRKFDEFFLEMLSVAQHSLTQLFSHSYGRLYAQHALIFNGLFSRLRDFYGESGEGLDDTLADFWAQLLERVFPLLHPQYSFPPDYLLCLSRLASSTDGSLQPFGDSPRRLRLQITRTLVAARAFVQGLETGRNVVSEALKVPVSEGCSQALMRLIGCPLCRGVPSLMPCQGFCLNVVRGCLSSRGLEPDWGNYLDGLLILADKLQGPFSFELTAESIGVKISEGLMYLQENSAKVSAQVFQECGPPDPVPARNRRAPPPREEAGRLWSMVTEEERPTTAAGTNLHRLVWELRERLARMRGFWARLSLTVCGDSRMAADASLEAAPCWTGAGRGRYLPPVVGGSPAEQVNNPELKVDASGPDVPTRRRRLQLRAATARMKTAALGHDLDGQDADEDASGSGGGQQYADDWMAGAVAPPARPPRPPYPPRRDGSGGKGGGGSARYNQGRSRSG


Columns and labels:
GPC2 = biological target: T1, GPC2; experiment: In vitro characterization of GPC2 antibodies; conditions: for use in CAR-T, ADC and bispecific antibody development
[1] = biological target: T2, cancer cell-associated GPC2; experiment: Targeting of GPC2 by phage display derived human antibodies; assay type: binding; conditions: isolated from phage display antibody library, affinity matured

Molecule	therapeutic activity in in vitro characterization (GPC2)	specific targeting of cancer cell-associated GPC2 [1]
m203 (antibody, V domains shown) VH: EVQLVQSGGGLVQPGGSLRLSCAASGFTFSSYAMSWVRQAPGKGLEWVSAISGSGGSTYYADSVKGRFTISRDNSKNTLSLQMDSLRPEDTAVYYCAKSRDSGNYLDAFDFWGQGTMVTVSS VL: DIQLTQSPSTLSASVGDRVTITCRASQSISSWLAWYQQKAGKAPRLLIYDASTLESGVPSRFSGTGSGTYFTLTISSLQPEDFATYYCQQFNSFPLTFGGGTKVEIKR	promising therapeutic activity	specifically targeting cancer cell-associated GPC2
m202 (antibody, V domains shown) VH: QVQLVQSGGGLIQPGGSLRLSCAASGFTVSSNYMSWVRQAPGKGLEWVSVIYSGGSTYYADSVKGRFTISRDNSKNTLYLQMNSLRAEDTAVYYCARDSNAFDIWGQGTMVTVSS VL: EIVLTQSPLSLPVTPGEPASISCRSSQSLLYSNGYNYLDWYLQKPGKSPQVLIYLGSNRASGVPDRFSGSGSGTDFTLKISRVEAEDVGVYYCMQALQTPITFGQGTRLEIKR	promising therapeutic activity	specifically targeting cancer cell-associated GPC2
m201 (antibody, V domains shown) VH: EVQLVETGGGVVKPGGSLRLSCAASGFTFSDYYMSWIRQAPGKGLEWVSYISSSGSTIYYADSVKGRFTISRDNSKNTLYLQMNSLRAEDTAVYYCARESGYDYVFDYWGQGTLVAVSS VL: DIQMTQSPSTLSAFVGDRVTITCRASQSISSWLAWYQQKPGKAPKLLIYAASTLQSGVPSRFSGSGSGTEFTLTISSLQPEDFATYYCQQLNSYPITFGQGTRLEIKR	promising therapeutic activity	–
